# Source: patent US20170334973A1 (INTEGRATED BIOTHERAPEUTICS, published 2017)
# Numbering of substitutions follows the chain as printed.
# B1: FVM03 (antibody, V domains shown)
# VH: QVQLQESGPVLVKPSETLSLTCAVSGYSISSAYAWSWIRQPPGKGLEWVGYVGSSSDYNPSLKSRVTISRDTSKNRIFLNLRSLTAADTAVYYCARDRANNSMDVWGRGVLVTVSS
# VL: EIVLTQSPDSLGVSLGERVTINCKSSQSLLYSSNNKNYLAWYQQKPGQAPKLLIYWASTRESGVPNRFSGSGSGTDFTLTISGLQAEDVAVYYCQQYYSTPLTFGQGTKVEIKR
# B2: FVM28 (antibody, V domains shown)
# VH: EVQLVQSGAEVKRPGESLKISCQTSGYRFTSSWISWVRQMPGKGLEWMGAIDPSDSETRYSPSFQGQVTISADKSISTAYLKWSSLKASDTATYYCVKGSETWGQGVLVTVSS
# VL: QAALTQPASLSASPGASASLTCTFSGGINVAGYHILWYQQKPGSPPRYLLRYKSDSEKDQGSGVPSRFSGSKDASANRGILRISGLQSEDEADYYCAIGHSSSGWVFGGGTRLTVL
# B3: FVM34 (antibody, V domains shown)
# VH: EVQLVESGAEVKRPGESLTISCKTSGYSFTDSWVSWVRQMPGKGLEWMGSIYPGDSETKYNPSFQGHVTISADKSVTTTYLKWSSLKASDTATYYCVKGSETWGQGVLVTVSS
# VL: QPVLTQPASLSASPGASASLTCTFSGGINVAGYYIHWYQQKPGSPPRYLLRYKSDSDKHQGSGVPSRFSGSKDASANTGILRISGLQSEDEADYYCAIGHSSGWVFGGGTRLTVL
# B4: FVM13 (antibody, V domains shown)
# VH: EVQLVQSGAEVKRPGESLKISCKTSGYTFTSSWISWVRQMPGKGLEWLGSIYPGDSDTRYNPSFQGHVTISADTSIITTHLQWSSLKASDTATYYCVKGSETWGQGVLVTVSS
# VL: B3 VL with Q1K, V3M, A8T, Y34N, H36L, P42A, D57T, H59D, V105I
# B5: FVM21 (antibody, V domains shown)
# VH: EVQLVESGAEVKRPGESLTISCKTSGYSFTDSWVAWVRQMPGKGLEWLGSIYPGDSETKYNPSFQGHVTISADKSISTTYLQWSSLRASDTATYYCVKGADDWGPGLLVTVSS
# VL: B3 VL with Q1S, P2S, V3E, Y34N, H36L, P42A, H59G, V105I
# B6: FVM19 (antibody, V domains shown)
# VH: B3 VH with E1Q, E6Q, S35A, M48L, E57D
# VL: B3 VL with Q1K, V3M, Y34H, H36F, H59G, W104L, V105L
# B7: FVM32 (antibody, V domains shown)
# VH: QVQLVQSGAEVKRPGESLRISCKTSGYSFTDSWVAWVRQMPGKGLEWLGSIYPGDSDTRYSPSFQGQVTISADKSITTAYLKWSSLKASDTATYYCVKGSETWGQGVLVTVSS
# VL: B3 VL with S25N, N29T, A31P, Y34D, H36L, P42S, D57T, H59D, A76T, V105I
# B8: FVM12 (antibody, V domains shown)
# VH: B3 VH with E6Q, G26E, D31G, V34I, E57D, K59R, N61S, H67Q
# VL: B3 VL with P14L, Y34N, H36L, Y48F, K58N, H59V, R67H, A76T
# B9: FVM18 (antibody, V domains shown)
# VH: B3 VH with E1Q, E6Q, T19K, D31N, S32I, V34I, M48L
# VL: B2 VL with Q1N, A2F, A3M
# B10: FVM25 (antibody, V domains shown)
# VH: EVQLVHSGAEVKRPGESLTISCKTSGYTFTDYWIAWVRQMPGKGLEWMASIYPDDSDTRYNPSFQGHVTISADKSISTTYLQWSSLRASDTATYYCVKGSETWGQGVLVTVSS
# VL: B3 VL with P2L, A16T, Y34N, H36L, Y48F, K58N, H59V, R67H, A76T
# B11: FVM41 (antibody, V domains shown)
# VH: B3 VH with E6Q, T19K, S32T, V34I
# VL: B3 VL with Q1E, P2T, L4V, Y34N, H36L, P42A, D57T, H59D, W104V, V105L
# B12: FVM40 (antibody, V domains shown)
# VH: B3 VH with E6Q, V34I
# VL: B3 VL with V3M, Y34N, H36L, P42A, D57T, H59D, V105I
# B13: FVM38 (antibody, V domains shown)
# VH: B3 VH with E1Q, E6Q, V34I, S35G, G49A, G54D
# VL: B3 VL with Y34N, H36L, P42A, D57T, H59D, V105I
# B14: FVM37 (antibody, V domains shown)
# VH: B3 VH with E1Q, E6Q, T19K, S28R, D31S, V34I, M48L
# VL: B3 VL with Q1S, P2S, V3E, Y34N, H36L, P42A, D57T, H59D, V105I
# B15: FVM35 (antibody, V domains shown)
# VH: B3 VH with E6Q, D31S, S32Y, V34I, S35T, M48L
# VL: B3 VL with Y34N, H36L, P42A, D57T, H59D, V105I
# B16: FVM23 (antibody, V domains shown)
# VH: QVQLVQSGAEVKRPGESLTISCKTSGYSFTGSWISWVRQMPGKGLEWMGSIYPGDSDTTYNPSFQGHVTISADKSISTAYLQWTSLKASDTATYYCVKGSETWGQGVLVTVSS
# VL: SYELTQPASLSASPGASASLTCTFSGGINVAGYNILWYQQKAGSPPRYLLRYKSDSTKDQGSGVPSRFSGSKDASANTGILRISGLQSEDEADYYCAIGHSSGLIFGAGTRLTVL
# B17: FVM24 (antibody, V domains shown)
# VH: EVQLVQSGAEVKRPGESLKISCKTSGYSFTDSWVAWVRQMPGKGLEWMGSIYPGDFQTRYNPSFQGHVTLSADKSISTTYLQWSSLKASDTATYYCVKGSETWGPGVLVTVSS
# VL: B16 VL with Y2S, E3G, A74V, E89D, L104W, A108G
# B18: FVM02P (antibody, V domains shown)
# VH: EVQLVESGGGLVQPGGSLRLSCAASGFTGFTFSDYAFYWVRQAPGKGLEWVGFIRGKAYGGTADYAASVKGRFTISRDNSKNTAYLQMSSLKTEDSAVYYCTSQGVTVATPYHWGQGVLVTVSS
# VL: DIVLTQSPLSLPVTPGEPASISCRSSQSLLHSGGKTYLYWYLQKPGQSPQLLIHEVSNRASGVPDRFSGSGSGTDFTLKISRVEAEDVGVYYCMQGIQLPLTFGGGTKVEIKR
# Biological target: T1, SUDV GPddmuc (Sudan virus (SUDV), UniProt Q66814 33-650)
# Experiment: native ELISA
row,Binder,binding result
1,B1,no binding

# Biological target: T2, EBOV GPddmuc (Ebola virus (EBOV), UniProt Q05320 33-650)
# Experiment: native ELISA
row,Binder,binding result
1,B1,no binding

# Biological target: T3, MARV GPddmuc (Marburg virus (MARV), UniProt P35253 19-648)
# Experiment: native ELISA
row,Binder,binding result
1,B2,no binding
2,B3,no binding
3,B4,no binding
4,B5,no binding
5,B6,no binding
6,B7,no binding
7,B8,no binding
8,B9,no binding
9,B10,no binding
10,B11,no binding
11,B12,no binding
12,B13,no binding
13,B14,no binding
14,B15,no binding
15,B16,no binding
16,B17,no binding

# Biological target: T1, SUDV GPddmuc
# Experiment: ELISA
row,Binder,EC50 [nM]
1,B2,0.047
2,B3,0.027
3,B4,0.051
4,B5,0.067
5,B6,0.267
6,B7,0.127
7,B8,0.081
8,B9,0.108
9,B10,0.18
10,B11,0.053
11,B12,0.033
12,B13,0.053
13,B14,0.033
14,B15,0.033
15,B16,0.08
16,B17,0.12
17,B18,0.158

# Biological target: T2, EBOV GPddmuc
# Experiment: ELISA
row,Binder,EC50 [nM]
1,B2,0.047
2,B3,0.027
3,B4,0.062
4,B5,0.067
5,B6,0.12
6,B7,0.073
7,B8,0.091
8,B9,0.101
9,B10,0.12
10,B11,0.047
11,B12,0.04
12,B13,0.06
13,B14,0.047
14,B15,0.033
15,B16,0.087
16,B17,0.153
17,B18,0.127

# Biological target: T3, MARV GPddmuc
# Experiment: ELISA
row,Binder,EC50 [nM]
1,B1,0.306
2,B18,> 10
